Assay results taken from article PMC2133019 (The Journal of Cell Biology, 1998).
acyl = not defined here

Columns and labels:
clathrin/AP cages = clathrin/AP cages (Bos taurus, UniProt P49951); experiment: NMR line-broadening with assembled clathrin/AP cages; type: binding, bovine; details: 2.5 mM peptide
[1] = molecular target: assembled clathrin/AP cages (bovine (purified from bovine brain)) (UniProt P49951); experiment: NMR line-broadening
[2] = 20 mg/ml cages, line-width with cages minus without

Chain of assembled clathrin/AP cages (bovine (purified from bovine brain)) (P49951 whole entry, looked up): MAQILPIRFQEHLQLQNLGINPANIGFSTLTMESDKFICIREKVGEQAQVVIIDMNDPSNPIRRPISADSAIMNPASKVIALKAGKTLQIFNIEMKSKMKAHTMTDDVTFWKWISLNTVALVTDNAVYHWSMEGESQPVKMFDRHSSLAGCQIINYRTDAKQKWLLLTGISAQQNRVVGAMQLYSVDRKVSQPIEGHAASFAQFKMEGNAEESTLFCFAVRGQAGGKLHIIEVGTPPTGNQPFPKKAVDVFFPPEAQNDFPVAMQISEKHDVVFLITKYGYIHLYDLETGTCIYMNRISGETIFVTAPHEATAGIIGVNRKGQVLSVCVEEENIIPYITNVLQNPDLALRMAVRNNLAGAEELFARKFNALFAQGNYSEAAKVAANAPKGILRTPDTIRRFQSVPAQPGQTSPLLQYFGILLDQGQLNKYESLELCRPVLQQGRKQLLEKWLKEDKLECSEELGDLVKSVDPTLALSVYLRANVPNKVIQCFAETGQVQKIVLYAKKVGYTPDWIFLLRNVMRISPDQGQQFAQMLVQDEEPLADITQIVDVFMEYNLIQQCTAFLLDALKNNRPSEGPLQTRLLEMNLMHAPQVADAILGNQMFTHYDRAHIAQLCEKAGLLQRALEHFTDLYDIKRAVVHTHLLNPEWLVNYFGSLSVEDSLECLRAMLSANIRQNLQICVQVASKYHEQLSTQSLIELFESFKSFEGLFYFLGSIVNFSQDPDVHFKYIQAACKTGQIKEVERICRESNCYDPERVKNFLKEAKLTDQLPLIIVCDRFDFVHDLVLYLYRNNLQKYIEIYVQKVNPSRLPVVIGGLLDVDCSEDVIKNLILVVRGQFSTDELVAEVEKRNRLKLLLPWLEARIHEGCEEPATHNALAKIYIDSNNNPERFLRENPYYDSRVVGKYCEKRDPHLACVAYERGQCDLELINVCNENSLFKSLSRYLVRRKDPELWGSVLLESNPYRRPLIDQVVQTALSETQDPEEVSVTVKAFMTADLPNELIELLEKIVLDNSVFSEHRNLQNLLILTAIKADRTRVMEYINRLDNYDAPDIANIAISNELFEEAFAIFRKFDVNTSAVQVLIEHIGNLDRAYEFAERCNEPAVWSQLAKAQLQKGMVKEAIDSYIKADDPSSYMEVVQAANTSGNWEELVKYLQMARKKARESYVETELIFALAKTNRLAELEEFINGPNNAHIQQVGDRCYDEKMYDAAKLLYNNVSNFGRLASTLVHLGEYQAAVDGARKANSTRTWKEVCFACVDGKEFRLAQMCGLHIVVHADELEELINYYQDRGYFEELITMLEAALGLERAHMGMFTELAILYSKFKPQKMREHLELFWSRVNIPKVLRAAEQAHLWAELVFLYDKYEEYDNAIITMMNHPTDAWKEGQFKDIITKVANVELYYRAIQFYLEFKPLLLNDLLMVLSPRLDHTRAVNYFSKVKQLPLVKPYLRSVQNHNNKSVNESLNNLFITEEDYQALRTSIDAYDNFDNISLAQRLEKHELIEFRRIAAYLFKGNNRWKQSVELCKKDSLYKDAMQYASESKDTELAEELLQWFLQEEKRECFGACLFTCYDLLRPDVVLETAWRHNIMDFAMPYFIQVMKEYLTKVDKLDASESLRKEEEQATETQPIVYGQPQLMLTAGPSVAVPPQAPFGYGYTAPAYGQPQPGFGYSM
Chain of clathrin/AP cages (P49951 whole entry): as the sequence (P49951 whole entry, looked up) above
Chain of clathrin/AP cages (P04973 whole entry partner): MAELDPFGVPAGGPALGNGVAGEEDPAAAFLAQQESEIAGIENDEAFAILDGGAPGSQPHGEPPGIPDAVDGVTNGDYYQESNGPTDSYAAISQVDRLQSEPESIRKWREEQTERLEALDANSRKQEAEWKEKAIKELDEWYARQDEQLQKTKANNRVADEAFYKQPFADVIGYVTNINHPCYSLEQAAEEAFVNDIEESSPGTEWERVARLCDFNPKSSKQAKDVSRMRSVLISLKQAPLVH
Chain of clathrin/AP cages (P04975 whole entry partner): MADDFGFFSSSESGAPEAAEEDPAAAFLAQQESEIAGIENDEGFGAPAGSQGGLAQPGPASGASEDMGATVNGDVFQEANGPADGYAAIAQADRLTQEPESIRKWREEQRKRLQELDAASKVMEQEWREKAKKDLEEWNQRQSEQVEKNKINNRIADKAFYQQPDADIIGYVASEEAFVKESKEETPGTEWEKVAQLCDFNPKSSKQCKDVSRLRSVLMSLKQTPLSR

FDNPVYQKTT (acyl-FDNPVYQKTT-OH; reading uncertain; also: acylated N-terminus, acyl group not given here)
line-broadening Phe εH (clathrin/AP cages; [2]): 3.60 Hz
line-broadening Thr10 γH (clathrin/AP cages; [2]): 2.95 Hz
line-broadening Tyr εH (clathrin/AP cages; [2]): 3.45 Hz
line-broadening Val γH1 (clathrin/AP cages; [2]): 5.20 Hz
line-broadening Val γH2 (clathrin/AP cages; [2]): 3.82 Hz
cage-induced line-broadening (in words) (clathrin/AP cages; 20 mg/ml clathrin/AP cages, pH 6.0): pronounced increase in the line widths

acyl-FDNPVYQKTT-OH (reading uncertain; also: acylated NH2 terminus) [wild-type LDL receptor internalization motif decapeptide …]
line-broadening, Phe εH [1]: 3.6 Hz
line-broadening, Thr9 γH [1]: 3.18 Hz
line-broadening, Thr10 γH [1]: 2.95 Hz
line-broadening, Tyr εH [1]: 3.45 Hz
line-broadening, Val γH1 [1]: 5.2 Hz
line-broadening, Val γH2 [1]: 3.82 Hz
